Source: publication doi:10.1101/2025.07.02.662585 (bioRxiv, 2025)

Molecular target: Tor2 (yeast (endogenous in yeast cells), UniProt P32600 1-2474)
Experiment: cryo-EM structure

Tor2, sequence (P32600 whole entry): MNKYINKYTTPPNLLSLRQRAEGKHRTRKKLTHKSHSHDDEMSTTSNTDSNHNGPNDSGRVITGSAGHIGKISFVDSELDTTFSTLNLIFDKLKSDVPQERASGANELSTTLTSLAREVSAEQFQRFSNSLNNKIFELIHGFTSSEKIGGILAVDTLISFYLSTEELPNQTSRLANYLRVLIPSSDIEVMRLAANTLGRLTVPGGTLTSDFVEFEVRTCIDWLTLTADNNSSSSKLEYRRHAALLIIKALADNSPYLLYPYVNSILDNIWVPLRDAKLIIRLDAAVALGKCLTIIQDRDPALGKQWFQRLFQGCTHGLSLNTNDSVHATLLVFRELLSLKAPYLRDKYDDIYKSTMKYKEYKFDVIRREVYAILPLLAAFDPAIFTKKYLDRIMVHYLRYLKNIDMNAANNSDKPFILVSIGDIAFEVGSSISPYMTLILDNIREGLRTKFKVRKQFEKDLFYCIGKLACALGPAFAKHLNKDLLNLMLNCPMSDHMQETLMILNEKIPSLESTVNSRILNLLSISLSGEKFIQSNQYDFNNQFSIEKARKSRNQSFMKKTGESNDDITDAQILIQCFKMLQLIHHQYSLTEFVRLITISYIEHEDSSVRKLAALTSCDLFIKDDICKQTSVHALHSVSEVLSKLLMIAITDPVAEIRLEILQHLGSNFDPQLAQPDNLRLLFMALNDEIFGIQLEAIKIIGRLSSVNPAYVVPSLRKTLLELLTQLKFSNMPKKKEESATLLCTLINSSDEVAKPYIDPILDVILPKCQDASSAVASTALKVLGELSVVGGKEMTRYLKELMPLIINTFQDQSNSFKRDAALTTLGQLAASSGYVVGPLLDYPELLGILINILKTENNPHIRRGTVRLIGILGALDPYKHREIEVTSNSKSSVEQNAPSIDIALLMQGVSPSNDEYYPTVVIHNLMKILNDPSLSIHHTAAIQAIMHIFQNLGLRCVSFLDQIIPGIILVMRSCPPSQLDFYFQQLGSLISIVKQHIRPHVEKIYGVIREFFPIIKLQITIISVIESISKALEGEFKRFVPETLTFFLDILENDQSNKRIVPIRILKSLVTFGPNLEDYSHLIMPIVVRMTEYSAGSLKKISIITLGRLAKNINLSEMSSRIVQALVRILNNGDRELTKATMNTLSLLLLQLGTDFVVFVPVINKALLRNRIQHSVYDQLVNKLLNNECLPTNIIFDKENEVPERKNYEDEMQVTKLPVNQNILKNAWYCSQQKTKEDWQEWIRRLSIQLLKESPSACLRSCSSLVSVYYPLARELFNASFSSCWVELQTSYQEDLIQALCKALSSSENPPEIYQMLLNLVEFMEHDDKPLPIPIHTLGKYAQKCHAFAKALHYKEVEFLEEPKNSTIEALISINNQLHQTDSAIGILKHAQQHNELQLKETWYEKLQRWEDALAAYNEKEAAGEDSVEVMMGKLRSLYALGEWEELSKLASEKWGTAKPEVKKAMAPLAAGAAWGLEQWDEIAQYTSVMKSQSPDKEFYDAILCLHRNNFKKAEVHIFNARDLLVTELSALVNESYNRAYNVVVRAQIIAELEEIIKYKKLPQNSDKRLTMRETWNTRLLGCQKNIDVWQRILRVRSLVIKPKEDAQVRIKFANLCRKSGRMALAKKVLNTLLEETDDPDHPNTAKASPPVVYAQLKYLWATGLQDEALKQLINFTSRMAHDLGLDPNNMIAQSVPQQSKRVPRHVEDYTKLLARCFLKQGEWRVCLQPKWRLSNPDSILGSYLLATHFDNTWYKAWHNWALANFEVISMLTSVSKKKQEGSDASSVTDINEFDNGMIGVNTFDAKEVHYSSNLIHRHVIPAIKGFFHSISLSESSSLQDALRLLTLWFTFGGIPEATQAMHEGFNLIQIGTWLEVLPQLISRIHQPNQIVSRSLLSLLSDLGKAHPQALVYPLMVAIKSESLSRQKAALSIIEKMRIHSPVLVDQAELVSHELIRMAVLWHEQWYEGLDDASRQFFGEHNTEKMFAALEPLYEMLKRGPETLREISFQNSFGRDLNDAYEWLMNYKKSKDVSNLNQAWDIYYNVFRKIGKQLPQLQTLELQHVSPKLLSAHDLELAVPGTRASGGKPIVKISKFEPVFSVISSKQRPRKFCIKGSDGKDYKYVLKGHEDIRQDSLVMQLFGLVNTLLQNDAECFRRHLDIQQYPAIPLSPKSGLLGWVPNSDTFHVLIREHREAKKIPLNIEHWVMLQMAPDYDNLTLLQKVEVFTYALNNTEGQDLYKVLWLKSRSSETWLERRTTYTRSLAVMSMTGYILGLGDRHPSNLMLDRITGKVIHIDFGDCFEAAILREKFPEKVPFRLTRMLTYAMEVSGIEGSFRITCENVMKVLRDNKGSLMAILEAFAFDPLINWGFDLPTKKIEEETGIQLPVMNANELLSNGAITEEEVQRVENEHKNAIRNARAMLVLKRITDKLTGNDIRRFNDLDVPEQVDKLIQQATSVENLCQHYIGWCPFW

| Binder | binding result |
| --- | --- |
| Avo2 (natural protein) MLKEPSVRLREAIIEGNLLIVKRLLRRNPDLLTNIDSENGWSSLHYASYHGRYLICVYLIQLGHDKHELIKTFKGNTCVHLALMKGHEQTLHLLLQQFPRFINHRGENGRAPIHIACMNDYYQCLSLLIGVGADLWVMDTNGDTPLHVCLEYGSISCMKMLLNEGEVSLDDNVRDKGNWKPIDVAQTFEVGNIYSKVLKEVKKKGPPLGAGKKPSSFRTPILNAKATFEDGPSPVLSMNSPYSLYSNNSPLPVLPRRISTHTTSGNGGNRRSSITNPVFNPRKPTLSTDSFSSSSNSSSRLRVNSINVKTPVGVSPKKELVSESVRHSATPTSPHNNIALINRYLLPNKSNDNVRGDSQTATINDDGGGGNGGDATIGMGLRKDPDDENENKYKIKVNNGEPRRRVSLLNIPISKLRNSNNTRAED | binds |
| Lst8 (natural protein) MSVILVSAGYDHTIRFWEALTGVCSRTIQHSDSQVNRLEITNDKKLLATAGHQNVRLYDIRTTNPNPVASFEGHRGNVTSVSFQQDNRWMVTSSEDGTIKVWDVRSPSIPRNYKHNAPVNEVVIHPNQGELISCDRDGNIRIWDLGENQCTHQLTPEDDTSLQSLSMASDGSMLAAANTKGNCYVWEMPNHTDASHLKPVTKFRAHSTYITRILLSSDVKHLATCSADHTARVWSIDDDFKLETTLDGHQRWVWDCAFSADSAYLVTASSDHYVRLWDLSTREIVRQYGGHHKGAVCVALNDV | binds |
